Experimental findings from patent US20250154277A1 (CONCEPT TO MEDICINE BIOTECH, published 2025) are described below.

Read-outs that look alike come from different tables or passages of the source.

The target of assay [1] is T1, human 5T4-His protein (human, UniProt Q13641 32-355).
T1 construct: also called recombinant 5T4 protein (human 5T4-his tag); human 5T4 protein; not shown: His tag
T1 sequence (looked up): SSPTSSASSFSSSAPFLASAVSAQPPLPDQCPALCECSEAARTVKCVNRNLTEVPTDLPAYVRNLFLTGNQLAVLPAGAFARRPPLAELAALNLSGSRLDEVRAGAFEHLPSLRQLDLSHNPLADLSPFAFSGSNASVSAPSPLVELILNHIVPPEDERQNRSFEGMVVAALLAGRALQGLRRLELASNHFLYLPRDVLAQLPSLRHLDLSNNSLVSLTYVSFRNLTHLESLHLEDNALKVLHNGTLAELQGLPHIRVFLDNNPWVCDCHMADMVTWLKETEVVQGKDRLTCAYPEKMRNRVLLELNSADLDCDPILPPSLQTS
Description: ELISA, coated 5T4-His. The protocol: To evaluate the binding activity of 393E9 humanized antibodies to human 5T4, the 393E9 chimeric antibody (393E9-C) along with 393E9 humanized mAbs were subjected to ELISA test.
Briefly, microtiter plates were coated with human 5T4-His protein at 1 μg/ml in PBS, 100 μl/well at 4° C. overnight, then blocked with 150 μl/well of 1% BSA. 4-fold dilutions of antibodies starting from 20 nM were added to each well and incubated for 1 hour at 37° C. The plates were washed with PBS/Tween and then incubated with Goat Anti-Human IgG-HRP for 30 mins at 37° C. After washing, the plates were developed with TMB substrate and analyzed by spectrophotometer at OD 450 nm. As shown in FIG. 12 and Table 9, most of the humanized antibodies bound to human 5T4 with high activity.

The target of assay [2] is T1, human 5T4-His protein. The experiment in a line: SPR Biacore, Protein A capture. As to the method: The binding of the 393E9 humanized antibodies to recombinant 5T4 protein (human 5T4-his tag) was tested with Biacore using a capture method. The mAbs were captured using Protein A chip. A serial dilution of human 5T4-his tag protein was injected over captured antibody for 3 mins at a flow rate of 30 μl/min. The antigen was allowed to dissociate for 280-800 s. All the experiments were carried out on a Biacore T200. Data analysis was carried out using the Biacore T200 evaluation software.

Assay [3] deals with T1, human 5T4-His protein. The experiment in a line: ELISA, coated 5T4-His. As to the method:
To evaluate the binding activity of clones, the 286B4 chimeric antibody along with 286B4 humanized mAbs were subjected to ELISA test.
Briefly, microtiter plates were coated with human 5T4-His protein at 1 μg/ml in PBS, 100 μl/well at 4° C. overnight, then blocked with 150 μl/well of 1% BSA. 4-fold dilutions of tested antibodies starting from 20 nM were added to each well and incubated for 1 hour at 37° C. The plates were washed with PBS/Tween and then incubated with Goat Anti-Human IgG-HRP for 30 mins at 37° C. After washing, the plates were developed with TMB substrate and analyzed by spectrophotometer at OD 450 nm. As shown in FIG. 16 and Table 15, most of the humanized clones bound to human 5T4 with high potency.
The source holds these as a separate data set.

B1: 393E9_hVH1_hVL4 (antibody, V domains shown)
VH: EVQLVESGGGLVQPGGSLRLSCAASGFTFTDYYMSWVRQAPGKGLEWVGFIRNKGNGYTTENSASVKGRFTISRDNSKSTLYLQMNSLRAEDTAVYYCARYRGNPHYAMDYWGQGTLVTVSS
VL: DIVLTQSPLSLPVTPGEPASISCRASESVEFYGTSFLQWYLQKPGQSPQLLIYGASNVESGVPDRFSGSGSGTDFTLKISRVEAEDIGVYFCQQSRKVPSTFGGGTKVEIK
notes: humanized
Turning to B1, it took 130 pM to reach a half-maximal effect in the assay with human 5T4-His protein [1] (EC50). In the assay with human 5T4-His protein [2], the Kd amounted to 599 pM, the koff was 0.000119 s⁻¹ and the kon amounted to 199000 M⁻¹ s⁻¹.

B2: 393E9_hVH3_hVL4 (antibody, V domains shown)
VH: QVQLVESGGGVVQPGGSLRLSCAASGFTFTDYYMSWVRQAPGKGLEWVGFIRNKGNGYTTENSASVKGRFTISRDNSKSTLYLQMNSLRAEDTAVYYCARYRGNPHYAMDYWGQGTLVTVSS
VL: DIVLTQSPLSLPVTPGEPASISCRASESVEFYGTSFLQWYLQKPGQSPQLLIYGASNVESGVPDRFSGSGSGTDFTLKISRVEAEDIGVYFCQQSRKVPSTFGGGTKVEIK
notes: humanized
Consider B2, for which the EC50 with human 5T4-His protein [1] is 95 pM. In the assay with human 5T4-His protein [2], this molecule showed a Kd of 573 pM, a koff of 0.000123 s⁻¹ and a kon of 215000 M⁻¹ s⁻¹.

B3: 393E9_hVH5_hVL4 (antibody, V domains shown)
VH: EVQLVESGGGLVQPGRSLRLSCTASGFTFTDYYMSWVRQAPGKGLEWVGFIRNKGNGYTTENSASVKGRFTISRDNSKSILYLQMNSLKTEDTAVYYCARYRGNPHYAMDYWGQGTLVTVSS
VL: DIVLTQSPLSLPVTPGEPASISCRASESVEFYGTSFLQWYLQKPGQSPQLLIYGASNVESGVPDRFSGSGSGTDFTLKISRVEAEDIGVYFCQQSRKVPSTFGGGTKVEIK
notes: humanized
The molecule B3 came in with a 50% effective concentration (EC50) with human 5T4-His protein [1] of 170 pM. In the assay with human 5T4-His protein [2], the Kd stood at 679 pM, the koff stood at 0.000125 s⁻¹ and the kon amounted to 184000 M⁻¹ s⁻¹.

B4: 393E9_hVH2_hVL4 (antibody, V domains shown)
VH: EVQLVESGGGLIQPGGSLRLSCAASGFTFTDYYMSWVRQPPGKGLEWVGFIRNKGNGYTTENSASVKGRFTISRDNSKSTLYLQMNSLRAEDTAVYYCARYRGNPHYAMDYWGQGTLVTVSS
VL: DIVLTQSPLSLPVTPGEPASISCRASESVEFYGTSFLQWYLQKPGQSPQLLIYGASNVESGVPDRFSGSGSGTDFTLKISRVEAEDIGVYFCQQSRKVPSTFGGGTKVEIK
notes: humanized
B4 displayed a concentration for a half-maximal effect (EC50) with human 5T4-His protein [1] of 120 pM. In the assay with human 5T4-His protein [2], this molecule yielded a Kd of 650 pM, a koff of 0.000127 s⁻¹ and a kon of 195000 M⁻¹ s⁻¹.

B5: Hu286B4-1 (antibody, V domains shown)
VH: EVQLQESGPGLVKPSDTLSLTCAVSGYSISNNYYWNWIRQPPGKGLEWIGYITYDGSNNYNPSLKNRVTMSRDTSKNQFSLKLSSVTAVDTAVYYCARGGGQLRFDYWGQGTTVTVSS
VL: DIQMTQSPSSLSASVGDRVTITCKASQSVSNEVTWYQQKPGKAPKLLIYYASNRYTGVPDRFSGSGSGTDFTFTISSLQPEDIATYYCQQDYSSPWTFGGGTKVEIK
notes: humanized
B5 displayed an EC50 with human 5T4-His protein [3] of 3810 pM.

B6: Hu286B4-9 (antibody, V domains shown)
VH: EVQLQESGPGLVKPSDTLSLTCAVSGYSISNNYYWNWIRQPPGKGLEWIGYITYDGSNNYNPSLKNRITMSRDTSKNQFSLKLSSVTAVDTAVYYCARGGGQLRFDYWGQGTTVTVSS
VL: DIQMTQSPSSLSASVGDRVTITCKASQSVSNEVTWYQQKPGKSPKMLIYYASNRYTGVPDRFSGSGYGTDFTFTISSLQPEDIATYFCQQDYSSPWTFGGGTKVEIK
notes: humanized
On to B6, for which the midpoint of the response in the assay with human 5T4-His protein [3], the EC50, lay at 330 pM.

B7: Hu286B4-16 (antibody, V domains shown)
VH: EVQLQESGPGLVKPSDTLSLTCAVSGYSITNNYYWNWIRQPPGKGLEWMGYITYDGSNNYNPSLKNRITVSRDTSKNQFSLKLSSVTAVDTAVYYCTRGGGQLRFDYWGQGTTVTVSS
VL: DIQMTQSPSSLSASVGDRVTITCKASQSVSNEVTWYQQKPGKAPKLLIYYASNRYTGVPDRFSGSGSGTDFTFTISSLQPEDIATYYCQQDYSSPWTFGGGTKVEIK
notes: humanized
In the assay with human 5T4-His protein [3], B7 came in with an EC50 of 4030 pM.

B8: Hu286B4-12 (antibody, V domains shown)
VH: EVQLQESGPGLVKPSDTLSLTCAVSGYSISNNYYWNWIRQPPGKGLEWMGYITYDGSNNYNPSLKNRITVSRDTSKNQFSLKLSSVTAVDTAVYYCARGGGQLRFDYWGQGTTVTVSS
VL: DIQMTQSPSSLSASVGDRVTITCKASQSVSNEVTWYQQKPGKAPKMLIYYASNRYTGVPDRFSGSGSGTDFTFTISSLQPEDIATYYCQQDYSSPWTFGGGTKVEIK
notes: humanized
B8: in the assay with human 5T4-His protein [3], the EC50 was found to be 890 pM.

B9: Hu286B4-19 (antibody, V domains shown)
VH: EVQLQESGPGLVKPSDTLSLTCAVSGYSITNNYYWNWIRQPPGKGLEWMGYITYDGSNNYNPSLKNRITVSRDTSKNQFSLKLSSVTAVDTAVYYCTRGGGQLRFDYWGQGTTVTVSS
VL: DIQMTQSPSSLSASVGDRVTITCKASQSVSNEVTWYQQKPGKSPKMLIYYASNRYTGVPDRFSGSGYGTDFTFTISSLQPEDIATYFCQQDYSSPWTFGGGTKVEIK
notes: humanized
In turn, B9 gave an EC50 in the assay with human 5T4-His protein [3] of 270 pM.

B10: Hu286B4-17 (antibody, V domains shown)
VH: EVQLQESGPGLVKPSDTLSLTCAVSGYSITNNYYWNWIRQPPGKGLEWMGYITYDGSNNYNPSLKNRITVSRDTSKNQFSLKLSSVTAVDTAVYYCTRGGGQLRFDYWGQGTTVTVSS
VL: DIQMTQSPSSLSASVGDRVTITCKASQSVSNEVTWYQQKPGKAPKMLIYYASNRYTGVPDRFSGSGSGTDFTFTISSLQPEDIATYYCQQDYSSPWTFGGGTKVEIK
notes: humanized
In the assay with human 5T4-His protein [3], B10 gave an EC50 of 710 pM.

B11: Hu286B4-6 (antibody, V domains shown)
VH: EVQLQESGPGLVKPSDTLSLTCAVSGYSISNNYYWNWIRQPPGKGLEWIGYITYDGSNNYNPSLKNRITMSRDTSKNQFSLKLSSVTAVDTAVYYCARGGGQLRFDYWGQGTTVTVSS
VL: DIQMTQSPSSLSASVGDRVTITCKASQSVSNEVTWYQQKPGKAPKLLIYYASNRYTGVPDRFSGSGSGTDFTFTISSLQPEDIATYYCQQDYSSPWTFGGGTKVEIK
notes: humanized
On to B11, for which, in the assay with human 5T4-His protein [3], it took 2640 pM to reach a half-maximal effect (EC50).

B12: Hu286B4-11 (antibody, V domains shown)
VH: EVQLQESGPGLVKPSDTLSLTCAVSGYSISNNYYWNWIRQPPGKGLEWMGYITYDGSNNYNPSLKNRITVSRDTSKNQFSLKLSSVTAVDTAVYYCARGGGQLRFDYWGQGTTVTVSS
VL: DIQMTQSPSSLSASVGDRVTITCKASQSVSNEVTWYQQKPGKAPKLLIYYASNRYTGVPDRFSGSGSGTDFTFTISSLQPEDIATYYCQQDYSSPWTFGGGTKVEIK
notes: humanized
B12 gave an EC50 with human 5T4-His protein [3] of 1420 pM.

B13: Hu286B4-2 (antibody, V domains shown)
VH: EVQLQESGPGLVKPSDTLSLTCAVSGYSISNNYYWNWIRQPPGKGLEWIGYITYDGSNNYNPSLKNRVTMSRDTSKNQFSLKLSSVTAVDTAVYYCARGGGQLRFDYWGQGTTVTVSS
VL: DIQMTQSPSSLSASVGDRVTITCKASQSVSNEVTWYQQKPGKAPKMLIYYASNRYTGVPDRFSGSGSGTDFTFTISSLQPEDIATYYCQQDYSSPWTFGGGTKVEIK
notes: humanized
B13 returned an EC50 with human 5T4-His protein [3] of 1350 pM.

B14: Hu286B4-14 (antibody, V domains shown)
VH: EVQLQESGPGLVKPSDTLSLTCAVSGYSISNNYYWNWIRQPPGKGLEWMGYITYDGSNNYNPSLKNRITVSRDTSKNQFSLKLSSVTAVDTAVYYCARGGGQLRFDYWGQGTTVTVSS
VL: DIQMTQSPSSLSASVGDRVTITCKASQSVSNEVTWYQQKPGKSPKMLIYYASNRYTGVPDRFSGSGYGTDFTFTISSLQPEDIATYFCQQDYSSPWTFGGGTKVEIK
notes: humanized
In the assay with human 5T4-His protein [3], B14 returned an EC50 of 300 pM.

B15: Hu286B4-7 (antibody, V domains shown)
VH: EVQLQESGPGLVKPSDTLSLTCAVSGYSISNNYYWNWIRQPPGKGLEWIGYITYDGSNNYNPSLKNRITMSRDTSKNQFSLKLSSVTAVDTAVYYCARGGGQLRFDYWGQGTTVTVSS
VL: DIQMTQSPSSLSASVGDRVTITCKASQSVSNEVTWYQQKPGKAPKMLIYYASNRYTGVPDRFSGSGSGTDFTFTISSLQPEDIATYYCQQDYSSPWTFGGGTKVEIK
notes: humanized
For B15, in the assay with human 5T4-His protein [3], the EC50 stood at 1760 pM.

B16: Hu286B4-4 (antibody, V domains shown)
VH: EVQLQESGPGLVKPSDTLSLTCAVSGYSISNNYYWNWIRQPPGKGLEWIGYITYDGSNNYNPSLKNRVTMSRDTSKNQFSLKLSSVTAVDTAVYYCARGGGQLRFDYWGQGTTVTVSS
VL: DIQMTQSPSSLSASVGDRVTITCKASQSVSNEVTWYQQKPGKSPKMLIYYASNRYTGVPDRFSGSGYGTDFTFTISSLQPEDIATYFCQQDYSSPWTFGGGTKVEIK
notes: humanized
With B16, the EC50 in the assay with human 5T4-His protein [3] came to 460 pM.
